{
  "source": "paper PMC7671103",
  "origin": "cited, not measured here",
  "molecular_target": "CoV main protease (Mpro) (SARS-CoV) (UniProt P0C6X7)",
  "note": "“And” between values parts separate entries of the source, which are not always exact repeats. Equal entries are not always repeated.",
  "data": [
    {"substance": "CoV main protease (Mpro) (from UniProt P0C6X7)", "values": [
      {"measurement": "Kd", "result": "800 nM and 2000 nM"}
    ]}
  ]
}
